Results on 7 molecules are retold here after patent US20030105292A1.

In assay [1] the target is G protein Gi.
Assay [2] concerns the target Gs protein.
Assay [3] concerns the target G protein Gq.
Assay [4] has as its target G protein Gi. This is another data set of the same source.
The target in assay [5] is G protein.
The target in assay [6] is Gs protein. This is another data set of the same source.

Turning to endogenous human GPR30 (receptor), the luciferase, CRE-Luc reporter in 293 cells co-transfected with GPR6 at a 1:4 ratio (relative light units) in assay [1] turned out to be 104.

Consider “endogenous, constitutively activated GPR6 (from UniProt P46095) (receptor)”, for which, in assay [2], the luciferase, CRE-Luc reporter in 293 cells (relative light units) turned out to be 104.

Turning to “non-endogenous human ETBR-LP2 (N358K) (receptor)”, in assay [3], the luciferase, AP1 reporter assay in 293T cells; Per-Cent Difference of the non-endogenous against the endogenous GPCR was found to be 61.1% and the luciferase, AP1 reporter assay in 293 cells; Per-Cent Difference of the non-endogenous against the endogenous GPCR is 48.4%.

The molecule “non-endogenous, constitutively activated GPR17 (V234K) (receptor)” came in with a luciferase, 8xCRE-Luc reporter in 293 cells co-transfected with GPR3; Per-Cent Difference of the non-endogenous against the endogenous GPCR in assay [4] of 74.5%.

For “non-endogenous, constitutively active GPR30 (L258K) (receptor)”, the luciferase, CRE-Luc reporter in 293 cells co-transfected with GPR6; Per-Cent Difference of the non-endogenous against the endogenous GPCR in assay [4] came out at 71.6%.

B1: non-endogenous human APJ (L247K) (receptor)
chain: MEEGGDFDNYYGADNQSECEYTDWKSSGALIPAIYMLVFLLGTTGNGLVLWTVFRSSREKRRSADIFIASLAVADLTFVVTLPLWATYTYRDYDWPFGTFFCKLSSYLIFVNMYASVFCLTGLSFDRYLAIVRPVANARLRLRVSGAVATAVLWVLAALLAMPVMVLRTTGDLENTTKVQCYMDYSMVATVSSEWAWEVGLGVSSTTVGFVVPFTIMLTCYFFIAQTIAGHFRKERIEGLRKRRRLKSIIVVLVVTFALCWMPYHLVKTLYMLGSLLHWPCDFDLFLMNIFPYCTCISYVNSCLNPFLYAFFDPRFRQACTSMLCCGQSRCAGTSHSSSGEKSASYSSGHSQGPGPNMGKGGEQMHEKSIPYSQETLVVD
Turning to B1, the [35S]GTPgammaS binding to membranes expressing the receptor; Per-Cent Difference of the non-endogenous against the endogenous GPCR in assay [5] was found to be 49%.

B2: non-endogenous human GHSR (V262K) (receptor)
chain: MWNATPSEEPGFNLTLADLDWDASPGNDSLGDELLQLFPAPLLAGVTATCVALFVVGIAGNLLTMLVVSRFRELRTTTNLYLSSMAFSDLLIFLCMPLDLVRLWQYRPWNFGDLLCKLFQFVSESCTYATVLTITALSVERYFAICFPLRAKVVVTKGRVKLVIFVIWAVAFCSAGPIFVLVGVEHENGTDPWDTNECRPTEFAVRSGLLTVMVWVSSIFFFLPVFCLTVLYSLIGRKLWRRRRGDAVVGASLRDQNHKQTKKMLAVVVFAFILCWLPFHVGRYLFSKSFEPGSLEIAQISQYCNLVSFVLFYLSAAINPILYNIMSKKYRVAVFRLLGFEPFSQRKLSTLKDESSRAWTESSINT
In assay [6], B2 came in with a luciferase, CREB reporter assay in 293T cells; Per-Cent Difference of the non-endogenous against the endogenous GPCR of 35.6% and a luciferase, CREB reporter assay in 293 cells; Per-Cent Difference of the non-endogenous against the endogenous GPCR of 58.9%.
